1 protein from publication PMC4614383, “Structural insights into the cooperative remodeling of membranes by amphiphysin/BIN1” (Scientific Reports, 2015) can be followed below.

The series concerns the molecule itself. The series is described as follows: cryo-EM 2D class averages and power spectra; 2D classification (Relion) of segments of tubes remodeled by N-BAR, N-BAR-deltaH0 or FL; liposomes 2POPG:1POPE; periodic spacings read from the power spectra; BAR dimers to a lattice on the membrane.

B1: full length Drosophila amphiphysin/BIN1 (FL, residues 1-602) (natural protein, UniProt Q7KLE5 1-602, looked up)
chain: MTENKGIMLAKSVQKHAGRAKEKILQNLGKVDRTADEIFDDHLNNFNRQQASANRLQKEFNNYIRCVRAAQAASKTLMDSVCEIYEPQWSGYDALQAQTGASESLWADFAHKLGDQVLIPLNTYTGQFPEMKKKVEKRNRKLIDYDGQRHSFQNLQANANKRKDDVKLTKGREQLEEARRTYEILNTELHDELPALYDSRILFLVTNLQTLFATEQVFHNETAKIYSELEAIVDKLATESQRGSNTLRKQTSNPIKTSSPVQSPVNKLNNANINSNYQNQITTNGGSSLANSPTSTSSSLQEPRFDSVSSTPEPRPESPAAALVSATPSSPVENGVTTKSLERPELSGLNASAKATTTTQTSPTEDKAVVSEAVKPSETEGAAVAASVTPAPPATPAQINGNNNEPSIVKEGGKQPKELPSTTSNAEAAAEAAANNGNSIEEHKQKKLGNDTTVTATETVTVTQHSVTSTDTDNIVTISDTNTDTDTKTSTGTSQKGRPVPVVNRHSVNNLNKNPFEDDDERIYEVPADANTADLPPGVLYRVKATYGYAKEDVDELSFEIGDLIRVIEYDDPEDQEEGWLMGQKEGTNEKGLFPANFTRPI
notes: amphiphysin/BIN1, Drosophila, full length, residues 1-602; Cloned either with a 3C-cleavable hexahistidine tag or a SenP2-cleavable sumo-hexahistidine tag; source: E. coli BL21 gold, purified (His-Trap, anion exchange, SEC)
Consider B1, for which the binding result was “binds”.
